Results on one substance are retold here after patent US5783663A, “Peptide ligands for affinity purification of fibrinogen” (Bayer Corporation, priority 1998, dated 1998).

One experiment addresses T1, Ribonuclease S-protein (Bos taurus, UniProt P61823).
T1 construct: Ribonuclease S-protein was purchased from Sigma (St. Louis, Mo.); purchased Sigma (St. Louis, Mo.)
T1 sequence (P61823 47-150 limits assumed): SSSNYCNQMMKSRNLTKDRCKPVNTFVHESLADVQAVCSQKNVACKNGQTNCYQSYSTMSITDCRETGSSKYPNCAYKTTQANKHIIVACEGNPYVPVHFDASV
Briefly: Radiological screening of library spiked with YNFEVL-beads against 14C-S-protein, scintillation counting of isolated beads. Type of experiment: binding. An excerpt: Following the protocol of Jentoft et al. (21), aminated beads (resin modified with TOTDA-linker) and proteins were labeled using reductive ^14 C-methylation. The ^14 C-methylated beads are hereafter referred to as ^14 C-Test Beads. The ^14 C-labeled formaldehyde was obtained from Dupont-NEN (55 Ci/mole, Boston, Mass.). Ribonuclease S-protein was purchased from Sigma (St. Louis, Mo.); human fibrinogen, from Chromogenix AB (Molndal, Sweden). To separate ^14 C-labeled protein from non-incorporated ^14 C-formaldehyde, an Econopac 10DG Desalting Column (Biorad, Hercules, Calif.) was employed. The ^14 C-labeled proteins were stored in the labeling buffer, 0.1M sodium phosphate buffer (Fisher, Pittsburgh, Pa.), pH 7, at -18° C. Pure protein solutions were quantitated using A280, with extinction coefficients of 1.5 and 0.73 for fibrinogen and S-protein, respectively. The resulting protein concentrations were 30 μM for ^14 C-S-protein, and 4 μM for ^14 C-fibrinogen. Maximal labeling yield was calculated based on maximum of two ^14 C-labeled methyl groups per mole of amino groups.
The number of disintegrations per minute, DPM, of radioactive samples was determined using a 1500 TriCarb Liquid Scintillation Analyzer from Packard (Meridan, Conn.) and CytoScint ES scintillation liquid from ICN (Casta Mesa, Calif.). Values of DPM are corrected for the background of the liquid scintillation counter (30-35 DPM) unless specified otherwise.
Library beads, 20 mg in dry weight per experiment, were first mixed with 1 ml of blocking solution to block non-specific interactions between the peptides and ^14 C-protein. For screenings against S-protein, 2% bovine serum albumin (BSA, Sigma) in PBS containing 0.05% Tween (Sigma) was used as blocking solution. For screenings against fibrinogen, either 2% BSA in PBS with 0.05% Tween or Blocker™Casein (1%) in PBS (Pierce) was used. Each mixture of beads and blocking solution was incubated in a Cryotube (Nunc, Denmark) for 2 hours on a tube rotator.
The blocked library beads were then exposed to target protein by pipetting the ^14 C-labeled protein directly into the mixture of beads and blocking solution. […] For fibrinogen experiments, 13 μl and 65 μl of the 4 μM ^14 C-fibrinogen solution was added, yielding final fibrinogen concentrations of 50 nM and 250 nM, respectively. The mixtures of beads, blocking solution, and protein solution were further rotated for 1.5 hours (S-protein experiment) and for 1 hour (fibrinogen experiment).
After completion of blocking and binding, the beads were transferred to a Polyprep column (Biorad) and rinsed with PBS containing 0.05% Tween 20 (Sigma) until the column flow-through reached background DPM levels. The total rinsing volumes were 200 ml and 140 ml for S-protein and fibrinogen, respectively. […]

Another experiment addresses T2, S-protein (Bos taurus, UniProt P61823).
T2 sequence (P61823 47-150 limits assumed): T1 sequence (P61823 47-150 limits assumed)
As to conditions: reference (3); cited from earlier work.

For YNFEVL, in the experiment with Ribonuclease S-protein (14C-S-protein 1 µM in PBS with 0.05% Tween 20, 2% BSA, average of isolated positive beads), the “amount of protein bound per bead, average” value is recorded as 133 fmol protein/bead. Besides, the “radioactivity of 14C-S-protein bound per bead” value with Ribonuclease S-protein (14C-S-protein 1 µM in PBS with 0.05% Tween 20, 2% BSA, background (33 DPM) subtracted) was 41-243 DPM/bead. Besides, the “amount of protein bound per bead” value in the experiment with Ribonuclease S-protein (14C-S-protein 1 µM in PBS with 0.05% Tween 20, 2% BSA, range over isolated positive beads) was 49-289 fmol protein/bead. Moreover, in the experiment with Ribonuclease S-protein (from average 70 pmol peptide/bead and 133 fmol protein/bead), the “peptide to protein ratio (YNFEVL-peptide molecules to 1 S-protein molecule)” value is reported as approximately 500. Further, the “association constant for binding S-protein” value with S-protein is on record as 10^4 -10^5 M^-1.
